Experimental data as given in patent publication US20060234906A1, “Structure of a complex of retinoblastoma protein bound to e2f, and uses thereof” (priority 2002, published 2006).

What was measured:
RbABC [1] = biological target: T1, RbABC (Homo sapiens, UniProt P06400); test: RbABC
T1 construct: His6-RbABC (RESIDUES 380-929); made in house; host or cells: E. coli
T1 sequence (P06400 whole entry, looked up): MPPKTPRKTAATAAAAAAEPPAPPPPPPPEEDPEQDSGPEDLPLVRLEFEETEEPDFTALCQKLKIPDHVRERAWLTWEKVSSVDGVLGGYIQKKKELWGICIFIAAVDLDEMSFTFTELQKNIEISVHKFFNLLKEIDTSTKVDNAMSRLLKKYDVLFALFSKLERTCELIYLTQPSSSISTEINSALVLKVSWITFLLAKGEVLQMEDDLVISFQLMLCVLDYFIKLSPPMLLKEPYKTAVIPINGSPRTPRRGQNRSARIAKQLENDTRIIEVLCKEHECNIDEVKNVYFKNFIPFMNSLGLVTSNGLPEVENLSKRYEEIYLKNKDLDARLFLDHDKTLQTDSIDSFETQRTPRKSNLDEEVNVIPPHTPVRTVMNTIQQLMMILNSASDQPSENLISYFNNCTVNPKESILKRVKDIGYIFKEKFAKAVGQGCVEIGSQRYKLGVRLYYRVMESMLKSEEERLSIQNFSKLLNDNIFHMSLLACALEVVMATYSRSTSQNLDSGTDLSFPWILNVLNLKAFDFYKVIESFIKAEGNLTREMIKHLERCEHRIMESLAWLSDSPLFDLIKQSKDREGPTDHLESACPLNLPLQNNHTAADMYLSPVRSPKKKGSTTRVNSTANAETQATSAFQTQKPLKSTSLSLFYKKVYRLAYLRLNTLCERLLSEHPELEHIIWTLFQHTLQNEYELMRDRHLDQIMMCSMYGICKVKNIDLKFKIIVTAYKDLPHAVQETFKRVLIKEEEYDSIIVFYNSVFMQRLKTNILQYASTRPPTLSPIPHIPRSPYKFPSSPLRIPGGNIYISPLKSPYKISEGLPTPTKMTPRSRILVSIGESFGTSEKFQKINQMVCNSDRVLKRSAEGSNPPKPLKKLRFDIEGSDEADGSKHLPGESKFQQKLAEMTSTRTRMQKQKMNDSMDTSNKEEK
Excerpt: Table printed on a drawing sheet, FIG. 2B
The patent's description of the figure: FIG. 2.
First copying reader's note: Binding constants of E2F fragments to the Rb constructs RbAB and RbABC; the error is printed in the same cell as the value.
Where the first naming reader finds the target: head: RbABC

RbABC [2] = biological target: T2, RbABC (Homo sapiens, UniProt P06400); test: Isothermal titration calorimetry of E2F constructs binding to RbABC; settings: ITC
T2 construct: His6-RbABC (RESIDUES 380-929); made in house; host or cells: E. coli
T2 sequence (P06400 380-928 limits assumed): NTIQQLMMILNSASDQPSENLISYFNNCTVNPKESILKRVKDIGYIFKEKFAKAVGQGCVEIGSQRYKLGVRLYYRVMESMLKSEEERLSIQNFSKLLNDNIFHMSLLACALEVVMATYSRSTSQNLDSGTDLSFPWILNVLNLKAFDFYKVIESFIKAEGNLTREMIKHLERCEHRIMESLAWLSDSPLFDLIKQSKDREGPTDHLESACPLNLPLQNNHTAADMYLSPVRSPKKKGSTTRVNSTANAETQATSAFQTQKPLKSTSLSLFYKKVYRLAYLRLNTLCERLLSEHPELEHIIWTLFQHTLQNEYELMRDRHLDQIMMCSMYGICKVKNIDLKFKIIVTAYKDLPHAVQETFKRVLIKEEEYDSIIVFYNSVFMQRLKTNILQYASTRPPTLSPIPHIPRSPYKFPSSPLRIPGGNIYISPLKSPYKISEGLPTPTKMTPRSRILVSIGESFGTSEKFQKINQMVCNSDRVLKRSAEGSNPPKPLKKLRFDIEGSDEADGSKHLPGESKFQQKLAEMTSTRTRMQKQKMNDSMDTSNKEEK
Description: (B) Summary of dissociation constants obtained by ITC measurements. The quoted errors are those produced by fitting the data to a two-state model. For the interaction of E2F(243-437) to RbAB and RbABC the affinities are too high to measure reliably and we have therefore quoted the upper limits of the dissociation constants.
Binding of the various E2F constructs to RbAB and RbABC was measured by isothermal titration calorimetry using a MicroCal Omega VP-ITC machine (MicroCal Inc., Northampton, USA). The E2F constructs at a concentration between 100-150 μM were titrated into 12-15 μM Rb at a temperature of 22° C. Proteins were dialysed against 50 mM Tris pH 7.6, 100 mM NaCl and 1 mM TCEP. After subtraction of the dilution heats, calorimetric data was analysed using the evaluation software MicroCal Origin v5.0 (MicroCal Software Inc.). For all of the titrations, the stoichiometry of ligand binding to Rb was very close to 1.0. For E2F(243-437) binding to Rb, the binding affinity and the heat change associated with binding were such that we could only establish that binding was tighter than 10 nM.

Kd (RbABC [1]): < 10 nM
binds stronger than either of the two shorter E2F fragments (RbABC [2]): at least 16 fold
B1: E2F(243-437): Recombinant human E2F1(243-437) expressed in E. coli (protein, UniProt Q01094 243-437, looked up, fragment)
chain: LAYVTCQDLRSIADPAEQMVMVIKAPPETQLQAVDSSENFQISLKSKQGPIDVFLCPEETVGGISPGKTPSQEVTSEEENRATDSATIVSPPPSSPPSSLTTDPSQSLLSLEQEPLLSRMGSLRAPVDEDRLSPLVAADSLLEHVREDFSGLLPEEFISLSPPHEALDYHFGLEEGEGIRDLFDCDFGDLTPLDF
